Entries after “also recorded” stand apart in the source; their conditions may differ.
Test system: aminoglycoside phosphorylase (KanR)
Format: cell-based, S. cerevisiae

B1: intein(N)-ER-intein(C): starting RecA intein with the estrogen receptor ligand binding domain in place of the endonuclease domain, SEQ ID NO: 1 (protein)
chain: CLAEGTRIFDPVTGTTHRIEDVVDGRKPIHVVAAAKDGTLHARPVVSWFDQGTRDVIGLRIAGGAIVWATPDHKVLTEYGWRAAGELRKGDRVAGPGGSGNSLALSLTADQMVSALLDAEPPILYSEYDPTRPFSEASMMGLLTNLADRELVHMINWAKRVPGFVDLTLHDQVHLLECAWLEILMIGLVWRSMEHPGKLLFAPNLLLDRNQGKCVEGMVEIFDMLLATSSRFRMMNLQGEEFVCLKSIILLNSGVYTFLSSTLKSLEEKDHIHRVLDKITDTLIHLMAKAGLTLQQQHQRLAQLLLILSHIRHMSNKRMEHLYSMKCKNVVPLYDLLLEMLDAHRLHAGGSGASRVQAFADALDDKFLHDMLAEELRYSVIREVLPTRRARTFDLEVEELHTLVAEGVVVHN
modifications: M. tuberculosis RecA intein with the estrogen ligand binding domain inserted in place of the RecA endonuclease domain with six amino acid linkers in between.
geneticin resistance (growth) in the KanR context: confers no geneticin resistance in the presence or absence of 4-HT; also recorded: unable to grown; also recorded: fails to confer geneticin resistance
